Laboratory results: patent EP1694709B1 (Fraunhofer-Gesellschaft zur Förderung der angewandten …, dated 2010)

Assays:
[1] = target: CD64 (human) (UniProt P12314); assay: cell-based or functional assay
[2] = target: CD64 (human) (UniProt P12314)
[3] = target: CD64 (human, UniProt P12314 16-374); assay: cell-based or functional assay

m22(scFv)2-ETA'
IC50 of growth inhibition (XTT-based colorimetric assay) on HL-60 cells [1]: 11.7 ng/mL | IC50 of growth inhibition (XTT-based colorimetric assay) on U937 cells [1]: 13.5 ng/mL

moAb m22 (antibody)
% inhibition of m22(scFv)-ETA' binding [2]: 70%

B1: m22(scFv)-ETA' (scFv)
chain 1: QVQLVESGGGVVQPGRSLRLSCSSSGFIFSDNYMYWVRQAPGKGLEWVATISDGGSYTYYPDSVKGRFTISRDNSKNTLFLQMDSLRPEDTGVYFCARGYYRYEGAMDYWGQGTPVTVSS
chain 2: DIQLTQSPSSLSASVGDRVTITCKSSQSVLYSSNQKNYLAWYQQKPGKAPKLLIYWASTRESGVPSRFSGSGSGTDFTFTISSLQPEDIATYYCHQYLSSWTFGQGTKLEIK
IC50 of growth inhibition (XTT-based colorimetric assay) on HL-60 cells [3]: 11.6 ng/mL | IC50 of growth inhibition (XTT-based colorimetric assay) on U937 cells [3]: 12.9 ng/mL
